Test results from the supplement of paper PMC9170038.

Tested on: MS2 coat protein
Test: apparent KD of MS2 coat protein; designed switch direction (-1 OFF switch, 1 ON switch): -1; higher = weaker reporter binding
How it was run: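 Apparent KD, taken as the median over clusters for each design, was obtained by curve-fitting normalised cluster fluorescence. Designed RNA switches had been transcribed on Illumina chips by stalled E. coli RNA polymerase and titrated with SNAP-549-labelled MS2 coat protein, doubling from 0.7 or 1.5 nM to 3 µM.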

[1] = input ligand: microRNA oligo, concentration not stated
[2] = Eterna round: R95, input ligand: FMN 200 uM
[3] = Eterna round: R95, input ligand: microRNA oligo, concentration not stated
[4] = Eterna round: R95, input ligand: none

| Sequence | apparent KD of MS2 coat protein (input ligand: FMN 200 uM) | apparent KD of MS2 coat protein [1] | apparent KD of MS2 coat protein (input ligand: none) | apparent KD of MS2 coat protein [2] | apparent KD of MS2 coat protein [3] | apparent KD of MS2 coat protein [4] |
| --- | --- | --- | --- | --- | --- | --- |
| AACCUGAGGCAAAGCUUUAGGCUUACAUGAGGAUCACCCAUGUAGGAUAUGGUAGGCAAAGCUUACCAGAAGGACAUGGAAAUU [Mat - Exclusion NG 3 - Mod of JL - D24] (Eterna round: R96, puzzle: Exclusion NG 3) | 0.611 µM | 0.127 µM | 0.13 µM | – | – | – |
| ACAAGCUUUUUGUUCGUCUUAUACACUCCUAAUAAGACAACAUGAGGAUCACCCAUGUAAGAAAUAAGAACUCAUGU [Sesor Array 4 - Jieux - Sensor v3, turn-off variant 2] (puzzle: Sensor v3, turn-off variant 2) | – | – | – | 0.292 µM | 0.595 µM | 0.381 µM |
| GCAGCACAUGUAGGAUAUCUGCACGAUUAGUGCAGAGAAGGACAUGAGGAUCACCCAUGUAAUUAAGAUCAAUUAUUAAGCUGC [ENG1/3-C1] (Eterna round: R96, puzzle: Exclusion NG 1) | 0.374 µM | 0.0364 µM | 0.0461 µM | – | – | – |
| CACCGUUAGUGAGGAUAUCGUACAUGAGGAUCACCCAUGUAAUAAAUGAGAAUUUCGGAUGUAUGCGAGAAGGCACAAAUCGGC [Ostracism 40 - Jieux - Exclusion NG 2] (Eterna round: R96, puzzle: Exclusion NG 2) | 0.0371 µM | 0.0347 µM | 0.0452 µM | – | – | – |
| AAUUAAACAAGCAGAUCCCACAUGAGGAUCACCCAUGUGCUCGUCUUAUAAGGUACUGUGACGAGAGUCACGGUACC [Mat - Sensor, turn-off var - Eli Mod - D64] (Eterna round: R97, puzzle: Sensor, turn-off variant 1) | 0.0664 µM | – | 0.0474 µM | – | – | – |
| AGUUGUUGUUUCCGUUCUUACAUGAGGAUCACCCAUGUUUCUUGUCGUGCUCGCGUUGCUCGUCUGGCUGCCUGUUG [salish99_TOv1_r3_069] (puzzle: Sensor v3, turn-off variant 1) | – | – | – | 0.0407 µM | 0.0352 µM | 0.0533 µM |
| UAUUAGCAAGCGAGAUCCCACAUGAGGAUCACCCAUGUGCUCGUCUUAUAAGGUACUGUGACGAUAGUCACGGUACC [Mat - Sensor, turn-off var - Eli Mod - D16] (Eterna round: R97, puzzle: Sensor, turn-off variant 1) | 0.0129 µM | – | 0.0148 µM | – | – | – |
| GGUUGGCGAGGAUAUACAUGAGGAUCACCCAUGUGAGAGAAAAAAGUGAGGAAGACAAGUAGAAGGCGCUGACG [salish99_ex3_r3_035] (puzzle: Exclusion 3) | – | – | – | 8.54 µM | 0.237 µM | 0.125 µM |
| CCUCGACAUGAGGAUCACCCAUGUGAGGAUAUGACCUUAAAAGCGUGAGCAGUUUCUAUCAGAAGGCGCGUAGG [salish99_ex1_r4_071] (Eterna round: R97, puzzle: Exclusion 1) | 0.0159 µM | – | 0.016 µM | – | – | – |
| AGAGAGUCAGGAUAUGACGAAGAGAACAUGAGGAUCACCCAUGUUGCUUCGUUUUUAUCGUCAGAAGGGACGAACU [JR_Ex5_Sub088] (Eterna round: R97, puzzle: Exclusion 5) | 0.0138 µM | – | 0.0139 µM | – | – | – |
| GAUGUGGGUUUUCAGAGUAACAUGAGGAUCACCCAUGUAGAAGUUGAAGGUAUCAAGCGAAUGGCUCGUCAUAUGUG [JR_SV3TOV1_Sub050] (puzzle: Sensor v3, turn-off variant 1) | – | – | – | 0.161 µM | 0.239 µM | 0.322 µM |
| CCAUGGGUGCGAGGAUAUAGCCCAUGGGAAGAGCUAGAAGGCGCAGACAUGAGGAUCACCCAUGUGUUCAUGAGGAGGUGGACA (Eterna round: R96, puzzle: Exclusion NG 1) | 0.124 µM | 0.0548 µM | 0.0848 µM | – | – | – |
| ACAUUUUAUCCAUGAUAUCACAUGAGGAUCACCCAUGUUAAGGCGAUUUUGAUUUGUAAGCUUUGUGCUCGACUUAU [JR_STOV1_Sub054] (Eterna round: R97, puzzle: Sensor, turn-off variant 1) | 0.0356 µM | – | 0.0421 µM | – | – | – |
| UAUUGCGAGUGAGGAUAUGACAUGAGGAUCACCCAUGUAAAGGGAGUUGGCUAUAUAGCAAGUUUUCAGAAGGCACUACUGUAU [JR_ExcNG2_Sub007] (Eterna round: R96, puzzle: Exclusion NG 2) | 0.114 µM | 0.0488 µM | 0.0664 µM | – | – | – |
| AAGUAUAGAGGAUAUAGUGAGUACUACAUGAGGAUCACCCAUGUUCUUCGUUACGUAUUUCUAGAAGGCUGAUAAA [EX-5 Malc#23] (puzzle: Exclusion 5) | – | – | – | – | 0.106 µM | – |
| UUAAUUAAUUAACGCAGCAAGAUCACAUGAGGAUCACCCAUGUAGGAUAUCAGCUCGAUUAGAGCUGAGAAGGACAUAGCUGCG [ExNG3/1-A1] (Eterna round: R96, puzzle: Exclusion NG 3) | 0.103 µM | 0.0182 µM | 0.0175 µM | – | – | – |
| AGAUUGUUAGGAUAUUCGGACCGCUACGAAGCGUGGUCCAGGGAGAAGGAACAUGAGGAUCACCCAUGUGACCA [Eternabot (L2) Solution 33] (Eterna round: R97, puzzle: Exclusion 4) | 0.0697 µM | – | 0.026 µM | – | – | – |
| CGAGCUGCUGUGAGGAUAUACCUAUGGAUACGUGGGUAGAAGGCACAUGAGGAUCACCCAUGUCCUGCAGCUCG [salish99_bmx4_r4_102] (Eterna round: R97, puzzle: Brourd's mod of Exclusion 4) | 0.313 µM | – | 0.0517 µM | – | – | – |
| ACGCCCUGAGGAUAUCUUAUCCCGUACAUGAGGAUCACCCAUGUUUUCCUCCGGGCUUCGAGAGAAGGCAGGCCCA [Armus14] (Eterna round: R97, puzzle: Exclusion 5) | 0.088 µM | – | 0.039 µM | – | – | – |
| GGGUGUGAAGGAUAUACAUGAGGAUCACCCAUGUGAGAGGAGAAUGUUGAGGAGGUUGGUAGAAGGUCAGGAGG [JR_Exclusion3_Sub010] (Eterna round: R96, puzzle: Exclusion 3) | 0.202 µM | 0.105 µM | 0.165 µM | – | – | – |
| GUCAGCUCGUGAGGAUAUGAACAUGAGGAUCACCCAUGUAAGAUCAAGCUGCUUCGGCAGCAAGUUCAGAAGGUACGAGCUGAC [ENG2/10-C1] (Eterna round: R96, puzzle: Exclusion NG 2) | 0.15 µM | 0.0775 µM | 0.13 µM | – | – | – |
